Test results from paper PMC5286426, “The Calcium-Dependent Switch Helix of L-Plastin Regulates Actin Bundling” (Scientific Reports, 2017).

Biological target: L-plastin EF construct (EF-hand headpiece domain, H5 region omitted) (human)
Test: SPR; EF construct immobilised by its sole cysteine (Cys42) on a CM5 chip by thiol coupling; peptides injected; BIAcore X100; 10 mM Tris-HCl pH 7.5, 150 mM KCl, 1 mM CaCl2, 0.005% Tween-20; 30 uL/min, contact 1 min, 25 °C

Ac-STDVAKTFRKAINKKEGI-NH2 [synthetic H5 peptide representing the H5 region of LPL (residues 83-100)]
Kd: 3.52 µM
